This note sets out measurements from a protein production outcome set (Wang et al. 2014).
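Also: failed if final PepcDB status was selected cloned or expressed and not failed if soluble or beyond.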

The nature of this data set: label from the status in PepcDB records.
In the case of “MKSSYGSSSNDLHAFVNEIKGEIQLSNINLDPYSFVSPSAYDTAWLSMIEEDINVDDNELKPMFQGCLDWIMCNQNAREGFWMNSTSYTTVADGRDEDGEKDMCILTSTLACVVALQKWNIGCFHLHKGTRYIERNTEMIIGKYINEEGSYPRWFAIKFTGILELAQKLGLHFVFSSRCIEMIKGMFYQRQEIIQREKLVHDCNYKPLLAYLEVLPSKLYVTNQEDIIVKSLDSMDGSLFQSPSATASAFMLTRNTKCLAYLQNLVQKCPNGVPQKYPLNEDLIKLSMVNLIESTGLGEFFGIEIEHVLEQVYSRYEEKDFERMPMSYLADQLHKDSLAFRMLRMHGRDVSPRSFCWFLNDQETRNHLERNIDSFLLVILSVYRATDLMFPGEHDLQEAREYTRNLLEKRRSIKEKMVPIYLNKIMHELSTPWIARLKHLDHRMWIEDKNSNVLSMEKASFLRLHSSYSDKLTHLAARNFEFQQAKYCRELEELTMWVKKWGLSDIGFGREKTTYCYFATVTSLPYEYAIKFGKLAAKTAILITIADDFFDEKGSFNDLEGLTKAVLRWEGEELKSYGNIIFRALDDIVRETANTCRTHHKTDIIVHLRNIWGETFESWLREAEWSKKGHTSSMDEYIRNGMISIAAHTIALSISCLMEPCFPHNKLKPGNYDSITTLLMIIPRLLNDLQSYQKEQEQGKMNSVLLHMKNHPGLEIEDSIAHIEKIIDSKRKEFLEHVLVDGLSDLPKPCKEIHMSCCKVFEMFFNKKNRYDSNTEMLHDIKKALYDPINVYELSEMEPMPLMAHGDEYMILPLLLNSLPNILEFKRKDGYGAMKTSMCFGRSYRVNKRVMASQLDDQHKPLKIVASQRKPVPMMQSIFAPCFY”, the protein production entry is “failed”.

For “MKSVNYRLLFSKSIFLGIFFLNIVFAQAQNEKKYIKEGDAAAASGDSKTALNQYLQAYKLNQTNASLNYKIGVQYLKSEYPHKCLSYFESAYKLDPKVDKDILFNLGVAYQENHRFDEAADYFTKYRATLDPSNPFLKKIDRRLYECANGKEFMEKPVDVKIQSVSSVVNSPYSDFAPVISADEKVMIFTSRRPGSTGGSFDENGQYYEDIYISKKIAGQWGAPQNIGSNINTEFHDASIALSADGSELFIYKDDNAGDIYYCKQRADGSWSKPLPIEGSVNSRTYRENAAAVSPDGNTLFFASNREGGYGKLDLYMVKMNDKGFWGKPINLGPTINTEVDDESPFMDFDGMTLYFSSRAHKGMGGLDIFKTYYDSTKGDWTEPINMGYPINSADDDINFVLSGDGGHGYYASAKDDGVGEKDIYMISMPPREDRTKLIEKMKAMHLDAPIADVVPAPTVAAVLLPITIKGVVKDAETGKPMQTVVQLTDENGKLIAEKNVGPDGLYSFTVKNEAATSYTLSTEKEEFGFINKTFSVPGEKTSSQEITQNLALKKLAVGNVYVLRNIYFDFDKATLKSASNKELNNLLQLLKQNPEMEIEISGHTDSKGSDEYNRVLSRKRAQAVVNWLVSKGISKNRLKFEGYGESRPLASNDDELEGRELNRRTEFKILKK”, the protein production entry is reported as “failed”.

For the sequence “MKSYQPKSLLNDLQYYITPPHDCSYLDNKSARMVFLDPIHRIDVVTLSELSRVGFRRSGDFVYRPECHLCRQCLSCRVPVHDFNMNSLQKKAWKRNQDLRMSIVPTHAATSVHYQLYERYINERHADGDMFPPSLDQFEKFLVHSCTESFFLELWKDDRLICVSTCDLMDDGLSAVYTFFDPDENRRSLGVFAILKQLEYVKSIDLDYLYLGYWVPHSQKMNYKSQYIPLELLLDGQWRRLNRALSQEEISQLGESLMTILPSEWNSMIIKLEHHHHHH”, the protein production result is on record as “failed”.

On to “MKSYRKELWFHTKRRREFINITPLLEECVRESGIKEGLLLCNAMHITASVFINDDEPGLHHDFEVWLEKLAPEKPYSQYKHNDTGEDNADAHLKRTIMGREVVIAITDRKMDLGPWEQVFYGEFDGMRPKRVLVKIIGE”, for which the protein production result was “not failed”.

Take “MKTDVRWATFNIRYDNPQDSLNNWQYRKDRVCQFIKDHELDIVGMQEVLHNQFQDLRAGLPEYDGIGVGRDDGKTAGEYAPLFYRKDKYEVLDSNTFWLAENPDSVGMMGWDAVCVRIATWAKFKDKATGKIFMAVNTHFDHVGEEARRQSALLIIRKIKEIVGERPAVVTGDFNVTDASDAYETITTNEFVMKDAYKTAARVTGVDYTFHDFARIPAEDCEKIDFIFVTPQVLVKSCEIPAEVPEALLSDHNPQLADLELEHHHHHH”: the protein production result is recorded as “not failed”.

On to “MKTEKEKREEEEEDLRPFRIHAYSKEELAMLYNPTYCISNAIYTLAAWIRHNKALKGELEKVGYNKYRRTFTPLEVKVLVKYLGEP”, for which the protein production result is reported as “failed”.

Take “MKTFIIGISGVTNSGKTTLAKNLQKHLPNCSVISQDDFFKPESEIETDKNGFLQYDVLEALNMEKMMSAISCWMESARHSVVSTDQESAEEIPILIIEGFLLFNYKPLDTIWNRSYFLTIPYEECKRRRSTRVYQPPDSPGYFDGHVWPMYLKYRQEMQDITWEVVYLDGTKSEEDLFLQVYEDLIQELAKQKCLQVTA”: the protein production entry is “failed”.

“MKTKPQAPHVDFYEKSELLHFLDCASKHENPQAFMFFRLLAFTGLRRGEALALQWSDINFETNELTVNKTQAVGKRWRTIIQTPKTNTSYRTIVLDPDTAQWLHKWKMTQARQCFELGFNANDPSQLVFTNQQNKLMSPSTVNYFNWSICKKYGLRHIKIHAFRHTFCTLAFEAHAGINEVSKTLGHADLKITEQIYLHVTKKQKNETASKLARYMSELLEHHHHHH”: the protein production result is reported as “not failed”.

“MKTLEKVNYKGFIWPLAVGIVLWLITPWRPGGLSVQAWEMFAIFVATIVGCITKPLPIGGTTLLGMVVTVLVGLAPVKDVVNSKGVVIQTGILSSFGNSAAWLIAMAFIMAHGISKTGLGNRVAYVMIEKFGKRSIGIGYAITGLELMMGALIPSNSARTGGVTWPVVESISKSYDSKPNDPSRKKIGAYLDFMAFHANILSTALFITGAAPNLVAQQMAAQKGYQMSWVSWFWAALVPVLVATVIIPLVIYKMYPPEVKETPNAKNWADDKLKEMGPISKPEKIMATVFCLAILLWVLSGFFKIPQLDSAFVAFLAVTLLLITGVLSMEDALHETGAWNILIWLSILIFMAGKLISYGFIAWFAKFIQSEVHGINWGLVLVVLILLMFYTHYFFASGTAHMTALYLPFLTVATAMGAPLGLSAMLLAFTGVINASTTHYANGPASILATTGYVKQSEWWKMNFILGLIYMVIFGIVGTIWMKIIGIW”: the protein production entry is reported as “failed”.

For the sequence “MKTLYDLPIVLRNLPEDLVLEKPLPEVSVTIRAYPEILNNLTKEQISLWIDATGKAVGEHTVKIYWQLPAGIEMVSIPDVTYTLKAKEDPLEHHHHHH”, the protein production result is listed as “failed”.

“MKTMNYSLIRILFALVIGLVLVLWPNTAASYIVITIGVAFLIPGVISLFSFFGRKRSEHEPAPRFPIEGIGSLLFGLWLIVMPEFFADVLMFLLGFILIMGGVQQIASLSMARRWTPVPGIFYLVPSLILIAGVIALFNPTGVRNTAFIIIGISSLVYSLSELINWFKFARRRPKTPVTPHDEDIEDAKIIE”: the protein production entry is given as “failed”.

Regarding “MKTMRKILEIDEERCNGCGLCVLDCAEGAIAIVDGKAKIVSDSFCDGLGACIGSCPQDALHIIEREAVPFDEEAAMEHVRSQGGTPEANHGHGHGAGTPHRHGQSAEHGGHGRIPGHGGCPGAAMRRFDSAESPAFAVAEGTVKGPGHWPLKIRLVPPTAPFLKGADVLVAADCAAAASPIFHSHFAAGKVVLIGCPKFDDTEAYAERLADILRVSGIASLTVLRMEVPCCRGLSAAAEKARVLSGTSLVLKEVIMTCAGGPAAPAPLSSLLEHHHHHH”, the protein production result is “not failed”.

“MKTRDKIIQASLELFNEHGERTITTNHIAAHLDISPGNLYYHFRNKEDIIRCIFDQYEQHLLLGFKPYADQKVDLELLMSYFDAMFYTMWQFRFMYANLADILARDDTLKARYLKVQQAVLEQSIAVLNQLKKDGILQIEDERIADLADTIKMIIGFWISYKLTQSSIATISKASLYEGLLRVLMIFKAYSTPDSLANFDRLEQHFRSQSN”: the protein production result is “not failed”.

Consider “MKTRINYAKASPEAFKAVMALENYVQSSGLEHRFIHLIKLRASIINGCAFCVDMHVKESRHDGLSEQWINLMSVWRESPVYTEQERALLGWVDAVTKIAETGAPDDAFETLRAHFSDEEIVKITVAIGAINTWNRIAVGFRSQHPVEAAAKAA”, for which the protein production entry was “not failed”.

For “MKTSFSIRIAFFFILSFLAVSCHRDTDALNMTFSKVEKCMDLCPDSALNLLKGIHDPEKLWGESQATYALLMTQAMDKNYMKFSSDSLIALALNYYTITQTSPIMYAKALFYHGRVMLELDKEEEALKSFLAAKDVYERTKDHKMLALIAEEVGMINRKQDLYDDALTNFREALTTYKQLKDSLSVISASLNIARVYLFKSEWDSCSLYYNNALEIAVQKNYLSEITILHELGILYRSMQNLSEAERYFLAAYEKETDEEKKYMECLSLGYLYMQMGQTENARKYLIMSANSSKAYTQISAYDCLYFLEKDIDNFEEAIVYHELADSITNAMEELNSRELIASLQKKYENEKLRNDNLQMKVRYTNFILWGTIAFLFVVACMCYYYYKNRNNKKKIAEIELQIQENEEEIERYQQEIEDIQISKDQVLKENLMLEENRTKVGELNGKIVLLTMQNKTLSEHLKELGGELNVGISSGSFIHAFRLLLAIKEGTLRGKLSNEERQKLFSLFDLIYWNYVSRLLERAPTLTKHDLEICCFLKFGLSHEELSCIFHTTSDSVTRAKGRLKGRLGISPQDDLDLFLKEF”, the protein production result is “failed”.

Regarding “MKTSLRLEDGTKNSLQIPIDLIIEIFLRLSVNSIARCRCVSKQWASTLSRPYFTELFLTRSLARPKLLFAYRKGSDYLFLSSPQLQNPDDDHKKSSPVVVNYHMHHILTLGSGNMSWRTIQCCIPHRSFDGGICIDGLIYYYAGVNNNDIVIVCFDVRSEEFRFIIGALHHGSLINYNGKLSLYLPSTVYSRFNGVIRSIKLWVLEDAKRQEWSEHTYILPAMHDIMKTTDLRCVGMTQTKEFVFWSIKGMRFYVFYYNIERNTIKKVEMQGMEAFKESNVYTFLDHVEDVKLMQFF”, the protein production result is reported as “failed”.

Consider “MKTSVIISTYTKERYKDVLRCIESVRHQSLKPYEILLILDPVKSLVEYYKNIVPKDVRVVVSDGFGLSKARNKGVFEAKGDIIAFIDDDAWADDLWLEKIVENYSDEGVYGVGGKIIPVFENGRPKWLPEELDWIVGCTYKGMPEQRTNIRNPIGANMSFRREAFEIAGPFRSEIGRYGKKLLSGEEAEFAMRLRKIKPDAKIIYEPSAVVYHKVPKSRVRISYAVKRAFYEGYSKAILAKEFPLEMESKYLNFILRSILRKLLSKGQQIEALVMSVIVMTVGIGNLYGTCRILLRK”, for which the protein production entry was “failed”.

Regarding “MKTVLAFGDSLTWGADPATGLRHPVEHRWPDVLEAELAGKAKVHPEGLGGRTTCYDDHAGPACRNGARALEVALSCHMPLDLVIIMLGTNDIKPVHGGRAEAAVSGMRRLAQIVETFIYKPREAVPKLLIVAPPPCVAGPGGEPAGGRDIEQS”, the protein production entry is given as “not failed”.

As for “MKTVRCSILGFGAIGQGVAEVLLMKKEYLESIGLEIIVVAVVDSRGATINPEGVDLADCLARKRTTGTVAIEKITGVEVIKSIDHDLVIETTPTNIVTGGAGLQNMFAAFEIGKDVITSNKGPLTLKYRELMEAAKVAGSSFRFEATVGGSMPIINLANEVLAGNRLKSIKGILNGTCNYILTRMLEERASYKDILAESMELGIAETDPTYDVDGIDTACKLVILANAIFGLNATYKDVEVTGITKITPEALEMAYERGHVIKLIGEVSRERIHVAPRLVPINHPLDVRGTLNVASIDTELAGEITVTGKGAGPVETASAILSDLIAIYGNQLEHHHHHH”, the protein production result was “not failed”.
